The values below come from paper PMC6303335 (2018).

The term koff denotes a measure of how fast the partners let go of each other. Higher therefore signals a short-lived complex.

In the assay the target is E194, the type I interferon binding protein (IFNα/βBP) from ectromelia virus (ECTV) Naval strain (Ectromelia virus, strain Naval). Nature of the assay: SPR. Background: SPR reads the build-up and loss of mass on a sensor chip optically.

B1: mouse IFNα subtype A (ligand)
chain: CDLPHTYNLRNKRALKVLAQMRRLPFLSCLKDRQDFGFPLEKVDNQQIQKAQAIPVLRDLTQQTLNLFTSKASSAAWNATLLDSFCNDLHQQLNDLQTCLMQQVGVQEPPLTQEDALLAVRKYFHRITVYLREKKHSPCAWEVVRAEVWRALSSSVNLLPRLSEEKE
The molecule B1 showed a koff of 0.000331 s⁻¹.
